Measurements taken from publication PMC3835915, “Diversification of Fungal Specific Class A Glutathione Transferases in Saprotrophic Fungi” (PLoS ONE, 2013).

Substrate: S=C=NCCc1ccccc1
Test: purified protein
Type: biochemical, Phanerodontia chrysosporium
Conditions: 5 mM GSH, pH 6.5, 2% acetonitrile

B1: PcGSTFuA1 (Phanerodontia chrysosporium) (protein)
chain: MAQPIVFYDIPSNERIKHSPWSPNTWKIRYALNYKGLKYKTEWVEYPDIAGVVQKLGGKPTEKTPDGRDHYTLPVIYDPNTKKVVEDSAAIAKYLDETYPDTPKLFPAGTDAFQAAFLDFAWPVLGFPVFMLVILDTANSLLPRSHDYFRSTREQKFGKKLEELATEEEWAKVEAGLAKLKGYLDANGKGNDLLLMGAQGGITYSDIQIASFFVWAKIIWGEGSEKWKRLISLHDGKWAQFYAQFTKFEQVDV
notes: full length, untagged, pET-3d, E. coli BL21(DE3) pSBET; Ala inserted after Met1; dimer; primers encode N-term MAQPIVF, C-term EQVDV
  Km: 119.0 ± 14.4 µM
  kcat: 8.515 ± 0.267 s⁻¹
